Data on 6 sequences can be found in the supplement of paper PMC11246515.

This series is described as follows: total protein half-life in vivo (active degradation + dilution); higher = more stable protein.
Setting [1] is: E. coli NCM3722 delta-clpP delta-lon delta-hslV, growth: N-lim chemostat, doubling time 6 h.
The mark [2] stands for this setting: E. coli NCM3722 delta-clpP, growth: N-lim chemostat, doubling time 6 h.
The mark [3] stands for this setting: E. coli NCM3722 delta-hslV, growth: N-lim chemostat, doubling time 6 h.
Setting [4] is: E. coli NCM3722 delta-lon, growth: N-lim chemostat, doubling time 6 h.
Where [5] appears, read: E. coli NCM3722 delta-smpB, growth: N-lim chemostat, doubling time 6 h.
The mark [6] stands for this setting: wild type E. coli NCM3722, growth: C-lim chemostat, doubling time 3 h.
Setting [7] is: wild type E. coli NCM3722, growth: C-lim chemostat, doubling time 6 h.
The mark [8] stands for this setting: wild type E. coli NCM3722, growth: C-lim chemostat, doubling time 12 h.
Setting [9] is: wild type E. coli NCM3722, growth: N-lim chemostat, doubling time 6 h.
Where [10] appears, read: wild type E. coli NCM3722, growth: N-lim chemostat, doubling time 12 h.
The mark [11] stands for this setting: wild type E. coli NCM3722, growth: P-lim chemostat, doubling time 6 h.
[12] abbreviates: wild type E. coli NCM3722, growth: P-lim chemostat, doubling time 12 h.

± gives the standard deviation of the averaged measurements. Where only a bound is given, the exact number is not on record here.

In the case of “MSFDIAKYPTLALVDSTQELRLLPKESLPKLCDELRRYLLDSVSRSSGHFASGLGTVELTVALHYVYNTPFDQLIWDVGHQAYPHKILTGRRDKIGTIRQKGGLHPFPWRGESEYDVLSVGHSSTSISAGIGIAVAAEKEGKNRRTVCVIGDGAITAGMAFEAMNHAGDIRPDMLVILNDNEMSISENVGALNNHLAQLLSGKLYSSLREGGKKVFSGVPPIKELLKRTEEHIKGMVVPGTLFEELGFNYIGPVDGHDVLGLITTLKNMRDLKGPQFLHIMTKKGRGYEPAEKDPITFHAVPKFDPSSGCLPKSSGGLPSYSKIFGDWLCETAAKDNKLMAITPAMREGSGMVEFSRKFPDRYFDVAIAEQHAVTFAAGLAIGGYKPIVAIYSTFLQRAYDQVLHDVAIQKLPVLFAIDRAGIVGADGQTHQGAFDLSYLRCIPEMVIMTPSDENECRQMLYTGYHYNDGPSAVRYPRGNAVGVELTPLEKLPIGKGIVKRRGEKLAILNFGTLMPEAAKVAESLNATLVDMRFVKPLDEALILEMAASHEALVTVEENAIMGGAGSGVNEVLMAHRKPVPVLNIGLPDFFIPQGTQEEMRAELGLDAAGMEAKIKAWLA”, the “total protein half-life in vivo” value came out at 5.82 ± 0.5 h under setting [1]; 6.08 ± 0.29 h under setting [2]; 5.79 ± 0.18 h under setting [3]; 5.92 ± 0.57 h under setting [4]; 5.36 ± 0.085 h under setting [5]; 3.01 ± 0.11 h under setting [6]. Besides, the “total protein half-life in vivo” value is 6.16 ± 0.82 h under setting [7]; 10.7 ± 1.4 h under setting [8]; 5.82 ± 0.11 h under setting [9]; 13.6 ± 0.63 h under setting [10]; 6.55 ± 0.58 h under setting [11]; 12.6 ± 0.56 h under setting [12].

As for “MQTKKNEIWVGIFLLAALLAALFVCLKAANVTSIRTEPTYTLYATFDNIGGLKARSPVSIGGVVVGRVADITLDPKTYLPRVTLEIEQRYNHIPDTSSLSIRTSGLLGEQYLALNVGFEDPELGTAILKDGDTIQDTKSAMVLEDLIGQFLYGSKGDDNKNSGDAPAAAPGNNETTEPVGTTK”, the “total protein half-life in vivo” value runs as follows: under setting [1], 6.04 ± 0.2 h; under setting [2], 6.2952 ± 0.0017 h; under setting [3], 5.73 ± 1.1 h; under setting [4], 6.27 ± 0.51 h; under setting [5], 6.07 ± 0.14 h; under setting [7], 5.612 ± 0.038 h. Moreover, the “total protein half-life in vivo” value came out at 12.5 ± 1.4 h under setting [8]; 6.08 ± 0.09 h under setting [9]; 13.6 ± 1.8 h under setting [10]; 5.72 ± 0.45 h under setting [11]; 13.7 ± 0.79 h under setting [12].

In the case of “MQHETKMENQSWLKKLARRLGPGHVVNLCFIVVLLFSTLLTWREVVVLEDAYISSQRNHLENVANALDKHLQYNVDKLIFLRNGMREALVAPLDFTSLRDAVTEFEQHRDEHAWKIELNRRRTLPVNGVSDALVSEGNLLSRENESLDNEITAALEVGYLLRLAHNSSSMVEQAMYVSRAGFYVSTQPTLFTRNVPTRYYGYVTQPWFIGHSQRENRHRAVRWFTSQPEHASNTEPQVTVSVPVDSNNYWYGVLGMSIPVRTMQQFLRNAIDKNLDGEYQLYDSKLRFLTSSNPDHPTGNIFDPRELALLAQAMEHDTRGGIRMDSRYVSWERLDHFDGVLVRVHTLSEGVRGDFGSISIALTLLWALFTTMLLISWYVIRRMVSNMYVLQSSLQWQAWHDTLTRLYNRGALFEKARPLAKLCQTHQHPFSVIQVDLDHFKAINDRFGHQAGDRVLSHAAGLISSSLRAQDVAGRVGGEEFCVILPGASLTEAAEVAERIRLKLNEKEMLIAKSTTIRISASLGVSSSEETGDYDFEQLQSLADRRLYLAKQAGRNRVFASDNA”, the “total protein half-life in vivo” value by setting is: under setting [2], 7.2 ± 0.57 h; under setting [3], 6.48 ± 0.5 h; under setting [5], 5.94 ± 0.3 h; under setting [6], 3.34 ± 0.062 h; under setting [7], 6.39 ± 0.087 h; under setting [8], 12.3 ± 0.47 h. The “total protein half-life in vivo” value is, setting by setting: under setting [9], 6.01 ± 0.53 h; under setting [11], 6.56 ± 0.22 h; under setting [12], 12.2 ± 0.31 h.

Take “MRLTSKGRYAVTAMLDVALNSEAGPVPLADISERQGISLSYLEQLFSRLRKNGLVSSVRGPGGGYLLGKDASSIAVGEVISAVDESVDATRCQGKGGCQGGDKCLTHALWRDLSDRLTGFLNNITLGELVNNQEVLDVSGRQHTHDAPRTRTQDAIDVKLRA [P0AGK8]”: the “total protein half-life in vivo” value under setting [1] amounted to 5.43 ± 0.76 h; the “total protein half-life in vivo” value under setting [2] amounted to 2.85 ± 0.1 h; the “total protein half-life in vivo” value under setting [3] is 1.38 ± 0.36 h; the “total protein half-life in vivo” value under setting [4] was found to be 1.43 ± 0.34 h; the “total protein half-life in vivo” value under setting [5] was found to be 1.04 ± 0.058 h; the “total protein half-life in vivo” value under setting [6] is 1.22 ± 0.076 h. The “total protein half-life in vivo” value reads like this: under setting [7], 1.76 ± 0.058 h; under setting [8], 2.04 ± 0.57 h; under setting [9], 1.057 ± 0.0037 h; under setting [10], 1.37 ± 0.1 h; under setting [11], 1.53 ± 0.5 h; under setting [12], 2.18 ± 0.6 h.

“MSQTVHFQGNPVTVANSIPQAGSKAQTFTLVAKDLSDVTLGQFAGKRKVLNIFPSIDTGVCAASVRKFNQLATEIDNTVVLCISADLPFAQSRFCGAEGLNNVITLSTFRNAEFLQAYGVAIADGPLKGLAARAVVVIDENDNVIFSQLVDEITTEPDYEAALAVLKA [P0A862]”: the “total protein half-life in vivo” value runs as follows: under setting [1], 5.35 ± 0.21 h; under setting [2], 5.2 ± 0.74 h; under setting [3], 5.25 ± 0.47 h; under setting [4], 4.96 ± 0.085 h; under setting [5], 4.739 ± 0.047 h; under setting [6], 3.16 ± 0.047 h. Moreover, the “total protein half-life in vivo” value stood at 6.01 ± 0.23 h under setting [7]; 10.8 ± 1.2 h under setting [8]; 5.01 ± 0.18 h under setting [9]; 9.45 ± 1.1 h under setting [10]; 6.09 ± 0.53 h under setting [11]; 13.3 ± 0.69 h under setting [12].

For “MDFNLNDEQELFVAGIRELMASENWEAYFAECDRDSVYPERFVKALADMGIDSLLIPEEHGGLDAGFVTLAAVWMELGRLGAPTYVLYQLPGGFNTFLREGTQEQIDKIMAFRGTGKQMWNSAITEPGAGSDVGSLKTTYTRRNGKIYLNGSKCFITSSAYTPYIVVMARDGASPDKPVYTEWFVDMSKPGIKVTKLEKLGLRMDSCCEITFDDVELDEKDMFGREGNGFNRVKEEFDHERFLVALTNYGTAMCAFEDAARYANQRVQFGEAIGRFQLIQEKFAHMAIKLNSMKNMLYEAAWKADNGTITSGDAAMCKYFCANAAFEVVDSAMQVLGGVGIAGNHRISRFWRDLRVDRVSGGSDEMQILTLGRAVLKQYR”, the “total protein half-life in vivo” value was greater than 8 h under setting [1]; 3.62 ± 0.096 h under setting [4]; 2.77 ± 0.42 h under setting [5]; 2.46 h under setting [6]; 3.58 h under setting [7]; 7.41 ± 1.4 h under setting [8]. The “total protein half-life in vivo” value is, setting by setting: under setting [11], 5.45 ± 0.16 h; under setting [12], 11.5 ± 1.7 h.
